Our source for the self-cleavage values is the RNAGym collection of RNA variant scans (doi:10.7554/elife.80360).

The chains are these.
B1: HDV Ribozyme (parent)
chain: GGCCGGCAUGGUCCCAGCCUCCUCGCUGGCGCCGGCUGGGCAACAUUCCGAGGGGACCGUCCCCUCGGUAAUGGCGAAUGGGACCCA

This data set covers variants of B1. Nature of the data set: self-cleavage, relative activity (ratio to wild type); higher = more cleavage; co-transcriptional.
Turning to GGCCGGCAUGGUCCCAGCCUCCUCGCUGGCGCCGGCUGGACAACAUUCCGAGGGGACCGUCCCCUCGGUAAUGGCGAAUGGCACCCA [G40A G82C], the self-cleavage worked out at 0.0665.
The value for GGCCGGCAUGGUCCCAGCCUCCUCGGUGGCGCCGGCUGGGCAACAUUCCGAGGGGACCGUCUCCUCGGUAAUGGCGAAUGGGACCCA [C26G C62U] was 1.09.
The value for GGCCGGCAGGGUCCCAGCAUCCUCGCUGGCGCCGGCUGGGCAACAUUCCGAGGGGACCGUCCCCUCGGUAAUGGCGAAUGGGACCCA [U9G C19A] was 0.208; that for GGCCGGCAUGGUCCCAGCCUCCUCGCUGGCGCCGGCAGGGCAACAUUCCGAGGGGACCGUCCCCUCGGUAAUGGCGAAUGGGACCGA [U37A C86G] was 0.0875.
The value for GGCGGGCAUGGUCCCAGCCUCCUCGCUGGCGCCGGCUGGGCAACAUUCCGAGGGGACCGUCCCCUCGGUAAUGGCGAAUGGGACCUA [C4G C86U] was 0.44; that for GGCCGGCAUGGUCCCAGCCUCCUCGCUGGCUCCGGCUGGGCAACAUUCCGAGGGGACCGUCCCCUCGGUAAUGGCGAAUCGGACCCA [G31U G80C] was 0.0449; that for GGCCGGCAUGGUCCCAGCCUCCUCGCUGACGCCGGCUGGGCAACAUUCCGAGGGGACCGUCCCCUCGGUAAUGGCAAAUGGGACCCA [G29A G76A] was 0.328.
Consider GGCCGGCAUGGUCCCAGCCUCCUCGCUGUCGCCCGCUGGGCAACAUUCCGAGGGGACCGUCCCCUCGGUAAUGGCGAAUGGGACCCA [G29U G34C], for which the self-cleavage came to 0.146.
The value for GGCCGGCAUGGUCCCAGCCUCCUCGCUGGCGCCUGCUGGGCAACAUUCCGUGGGGACCGUCCCCUCGGUAAUGGCGAAUGGGACCCA [G34U A51U] was 0.169.
As to GGCCGGCAUGGUCCCAGCCUCCUCGCUGGCGCCGGCUGGGCAACAUUCCGAGGGGACCGUUCCCUCUGUAAUGGCGAAUGGGACCCA [C61U G67U], the self-cleavage was found to be 0.842.
The value for GGCCGGCAUGCUCCCAGCCUCCUCGCUGGUGCCGGCUGGGCAACAUUCCGAGGGGACCGUCCCCUCGGUAAUGGCGAAUGGGACCCA [G11C C30U] was 0.0604; that for GGCCGGCAUGGUCCCAUCCUCCUCGCUGGCGCCGGCUGGGCAACAUUCCGAGGGGACCGUCCCCUCGGUAAUGGCCAAUGGGACCCA [G17U G76C] was 0.751; that for GGCCGGCAUGGUCCCUGCCUCCUCGCGGGCGCCGGCUGGGCAACAUUCCGAGGGGACCGUCCCCUCGGUAAUGGCGAAUGGGACCCA [A16U U27G] was 0.665.
The value for GGCCGGCACGGUCCCAGCCUCCUCGCUGGCGCCGGCUGGGCAACAUUCCGAGGGGACCGUCCCCUCGGUAAUGCCGAAUGGGACCCA [U9C G74C] was 0.277; that for GGGCGGCAUGGUCCCAGCCUCCUCGCUGGCGCCGGCUGGGCAACAUUCCGAUGGGACCGUCCCCUCGGUAAUGGCGAAUGGGACCCA [C3G G52U] was 0.691; that for GGCCGGCAUGGUCCCAGCCUCCUCGCUGGCGCCGGCUGGGCAACAUUCCGAGGGGACCGUCGCCUCGGUAAUAGCGAAUGGGACCCA [C62G G73A] was 0.534.
The figure for GGCCGGCAUGGGCCCAGCCUCCUCGCUGGCGCCGGCUGGGCGACAUUCCGAGGGGACCGUCCCCUCGGUAAUGGCGAAUGGGACCCA [U12G A42G] is 0.369.
For GGCCGGCAUGGUCCCAGCCUCCUCGCUGGCGCCGGCUGGGCAACAUUCCGAGGGGACCGUCCCCUCGGUAGUGGCGCAUGGGACCCA [A71G A77C], the self-cleavage worked out at 0.45.
With GGCCGGCAUGGUCCCAGCCUCCGCGCUGGCGCCGGCUGGGCAACAUUCCGAGGGGACGGUCCCCUCGGUAAUGGCGAAUGGGACCCA [U23G C58G], the self-cleavage came out at 0.72.
The figure for GGCCGGCAUGGUCCCAGCCUCAUCGCUGGCGCCGGCUGGGCAACAUUCCGAGGGGACCGUCCCCUCGGUAAUGACGAAUGGGACCCA [C22A G74A] is 0.0744; for GGCCGCCAUGGUCCCAGCCUCCUCGCUGGCGCCGGCUGGGCAACAUUCCGAGGGGACCGUCCCCUCGGUAAUGGUGAAUGGGACCCA [G6C C75U] it is 0.095.
For GGCCGGCAUGGUCCCAGCCUCCUCGCUGGCGCCGGCUGGGCAACAUUCCGAGGGGAUCGUCCCAUCGGUAAUGGCGAAUGGGACCCA [C57U C64A], the self-cleavage was found to be 0.901.
The figure for GGCCGGCAUGGUCCCAGCCUCCUCGCUGGCGCCGGUUGGGCAACAUUCCGAGGGGACCGUCCCCUCGGUAAUGGAGAAUGGGACCCA [C36U C75A] is 0.203.
The figure for AGCCGGCAUGGUCCCAGCCUCCUCGCUGGCGCCGGCUGGGCAACAUUCCGAGGGGACCCUCCCCUCGGUAAUGGCGAAUGGGACCCA [G1A G59C] is 0.229; for GGCCGGCAUGGUCCCAGCCUCCUCGCUGGCGCCGGCUGGGCAACAUUUUGAGGGGACCGUCCCCUCGGUAAUGGCGAAUGGGACCCA [C48U C49U] it is 0.85; for GGUCGGCAUGGUCCCAGCCUCCUCGCUGGCGCCGGCUGGGCAACAUUCCGAGGGGACCGUCCCAUCGGUAAUGGCGAAUGGGACCCA [C3U C64A] it is 0.518.
The value for GGCCGGCAUUGUCCCAGCCUCCUCGCUGGCGCCGGCUGUGCAACAUUCCGAGGGGACCGUCCCCUCGGUAAUGGCGAAUGGGACCCA [G10U G39U] was 0.346; that for GGCCGGCAUGGUCCCAGCCUCCUCGCUGGCGCUGGCUGGGCAACAUUCCGAGGGGACCGUCCCCCCGGUAAUGGCGAAUGGGACCCA [C33U U65C] was 0.969.
Take GGCCGGCAUGGUCCCAGCGUCCUCGCUGGCGCCGGCUGGGCAACAUUCCGAGGGGACCGUACCCUCGGUAAUGGCGAAUGGGACCCA [C19G C61A]: the self-cleavage came to 0.106.
The figure for GGCCGGCAUUGUCCCAGCCUCCUCGCUGGCGCCGGCUGGGCAACAUUCCGAGGGGACCGUCCCCUCGGUAAUGGCGAAUGGGACCCU [G10U A87U] is 0.653; for GGCCGGCAUGGUCCCAGCCUCUUCGCUGGCGCCGGCUGCGCAACAUUCCGAGGGGACCGUCCCCUCGGUAAUGGCGAAUGGGACCCA [C22U G39C] it is 0.115; for GGCCGGCAUGGUCCCAGCCUCUUCGCUGGCGCCGGCUGGGCAAAAUUCCGAGGGGACCGUCCCCUCGGUAAUGGCGAAUGGGACCCA [C22U C44A] it is 0.0898.
